Reference: article PMC12806343

Assays:
[1] = biological target: membrane-bound PD-L1 on MDA-MB-231 cells (Homo sapiens?) (UniProt Q9NZQ7); experiment: cell retention assay; details: aptamer on slide, 5' amine (NH2), BLI: 1x PBS pH 7.4, aptamers 3-12 uM, 300 s association, 600 s dissociation, temperature not stated, EMSA: TBE-PAGE, binding buffer composition not given
[2] = biological target: membrane-bound PD-L1 on MDA-MB-231 cells, PNGase F treated (UniProt Q9NZQ7); experiment: cell retention assay; details: 5' amine (NH2), BLI: 1x PBS pH 7.4, aptamers 3-12 uM, 300 s association, 600 s dissociation, temperature not stated, EMSA: TBE-PAGE, binding buffer composition not given
Chain of membrane-bound PD-L1 on MDA-MB-231 cells, PNGase F treated (Q9NZQ7 19-290): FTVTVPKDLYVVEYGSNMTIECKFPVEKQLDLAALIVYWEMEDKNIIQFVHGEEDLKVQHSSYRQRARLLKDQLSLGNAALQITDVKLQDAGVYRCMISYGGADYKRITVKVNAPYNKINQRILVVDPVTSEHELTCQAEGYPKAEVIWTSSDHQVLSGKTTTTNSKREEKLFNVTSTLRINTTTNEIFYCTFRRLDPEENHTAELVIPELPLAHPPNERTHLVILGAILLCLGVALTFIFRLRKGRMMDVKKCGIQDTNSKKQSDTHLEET

Chain of membrane-bound PD-L1 on MDA-MB-231 cells (Homo sapiens?) (Q9NZQ7 19-290): as above

Sequence: ATAGTCCCTGGCGTGCTTGGTCGGCAGAGCAGGTACGGTGTCA [Apt45]
- binding signal (% cells retained) ([1]; negligible adhesion): 5.9
- binding signal (% cells retained) [2]: 46

Sequence: GTACCTGCTCTCCGCGCGAAGCACGCCAGGGACT [Tr-Apt13]
- binding signal (% cells retained) [1]: 86.8

Sequence: TGACACCGTACCTGCTCTCCGCGCGAAGCACGCCAGGGACTAT [Apt13]
- binding signal (% cells retained) ([1]; comparison with Apt45): 72.9
- binding signal (% cells retained) ([1]; comparison with Tr-Apt13): 62.8
